Source: paper PMC12781765, “Atypical GNAO1 variants in severe childhood speech disorders: clinical, genetic, and molecular insights” (Molecular Autism, 2025)

Molecular target: T1, GFP-RGS19 (UniProt P49795 1-217)
T1 construct: RGS19, regulator of G protein signaling 19; Plasmid published earlier; also called GFP-tagged RGS19 construct; source: HEK293T, transfected, in lysate
T1 sequence (looked up): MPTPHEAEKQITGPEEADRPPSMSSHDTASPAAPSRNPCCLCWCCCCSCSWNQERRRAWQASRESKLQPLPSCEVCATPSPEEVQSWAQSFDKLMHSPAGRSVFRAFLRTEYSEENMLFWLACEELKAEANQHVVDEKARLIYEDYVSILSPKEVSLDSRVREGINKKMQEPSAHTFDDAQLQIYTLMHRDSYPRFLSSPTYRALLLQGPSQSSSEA
Experiment: co-IP; HEK293T co-transfected with the GFP-tagged construct and non-tagged Gαo variants; IP of the GFP fusion with a recombinant GST-tagged nanobody against GFP; Western blot with antibodies against Gαo and GFP; blots quantified with ImageJ
Details: partners not purified

B1: Gαo L39_G40insV (non-tagged) (natural protein, human, UniProt P09471-1 1-354, looked up)
chain: MGCTLSAEERAALERSKAIEKNLKEDGISAAKDVKLLLLVGAGESGKSTIVKQMKIIHEDGFSGEDVKQYKPVVYSNTIQSLAAIVRAMDTLGIEYGDKERKADAKMVCDVVSRMEDTEPFSAELLSAMMRLWGDSGIQECFNRSREYQLNDSAKYYLDSLDRIGAADYQPTEQDILRTRVKTTGIVETHFTFKNLHFRLFDVGGQRSERKKWIHCFEDVTAIIFCVALSGYDQVLHEDETTNRMHESLMLFDSICNNKFFIDTSIILFLNKKDLFGEKIKKSPLTICFPEYTGPNTYEDAAAYIQAQFESKNRSPNKEIYCHMTCATDTNNIQVVFDAVTDIIIANNLRGCGLY
notes: Gαo (GNAO1) with the patient variant p.Leu39_Gly40insVal (c.116_118dup), introduced by site-directed mutagenesis into the non-tagged Gαo plasmid; De novo patient variant; also called p.Leu39_Gly40insVal; source: HEK293T, transfected (in lysate for co-IP; in cells for BRET)
- percent of the binding of wild-type: < 15%
